Measurements taken from patent publication US20160327558.

## Human cathepsin B
z-VRPR-FMK
  in vitro protease activity measurements (zRR-AMC cleavage): also abrogated cathepsin B activity even though slightly less efficient
Probe 5 (FITC-LRSR-AOMK)
  in vitro protease activity measurements (zRR-AMC cleavage): also abrogated cathepsin B activity even though slightly less efficient
